Assay: in vivo
Conditions: male, NSG, mouse, iv, 1 nmol/mouse, total radioactivity, biodistribution
Description: As documented in the literature, engineered PC3-Pip cells express particularly high PSMA levels, which are not representative for the situation in human tumors (mean number of PSMA binding sites = 4.9 × 10^6 sites/cell for PC3-Pip cells vs. 5.9 × 10^5 sites/cell for LNCaP [60]). Thus, to correlate quantitative data with in vivo/ex vivo fluorescence signals, a biodistribution study was conducted under the same conditions as the fluorescence imaging. NSG mice bearing PC3-Pip (PSMA+) and PC3 WT (PSMA-) xenografts on opposite shoulders received [^99mTc]Tc-PSMA-HSG (1 nmol), and biodistribution was assessed at 2 h p.i. (Supplementary Table 1). The overall distribution matched previous data from LNCaP-bearing mice (Table 3), but tumor uptake was over twice as high (26.6 ± 5.0%iD/g). Low uptake in PC3 WT tumors (1.6 ± 0.3%iD/g) confirmed PSMA-specificity.
PC-3 PIP xenografts were established by subcutaneous injection of 5 × 10^6 PC3-PIP cells/mouse using 8–12-week-old male NSG mice (in-house breeding, Dpt. of Oncology, University of Lausanne) as previously described. Tumors reached a size of 4-8 mm in diameter after 5-6 days and were then immediately used for the fluorescence imaging studies.

`C[N+]1=C(/C=C/C=C/C=C2/N(CCCCCC(=O)NCCCC[C@@H](NC(=O)[C@@H](CO)NC(=O)[C@@H](CO)NC(=O)[C@@H](CO)NC(=O)CS)C(=O)N[C@H](Cc3ccc(O)cc3)C(=O)N[C@H](Cc3ccc4ccccc4c3)C(=O)N[C@H](CCCCNC(=O)CCCCCCC(=O)NCCCC[C@H](NC(=O)N[C@@H](CCC(=O)O)C(=O)O)C(=O)O)C(=O)O)c3ccc(S(=O)(=O)[O-])cc3C2(C)C)C(C)(C)c2cc(S(=O)(=O)O)ccc21` [[^99mTc]Tc-PSMA-HSG, metal not drawn] showed a tissue uptake at 2 h (PC3-Pip tumor) of 26.6 ± 5 %ID/g, a tissue uptake at 2 h (PC3 WT tumor) of 1.6 ± 0.3 %ID/g and a tissue uptake at 2 h (blood) of 2.8 ± 0.4 %ID/g. The tissue uptake at 2 h (heart) was 1.5 ± 0.3 %ID/g, the tissue uptake at 2 h (intestines) was 0.9 ± 0.1 %ID/g and the tissue uptake at 2 h (kidneys) was 100 ± 8.2 %ID/g. For the same compound, the tissue uptake at 2 h (liver) was 2.9 ± 0.5 %ID/g, the tissue uptake at 2 h (lung) was 4.1 ± 1.2 %ID/g and the tissue uptake at 2 h (muscle) was 0.6 ± 0.1 %ID/g. For the same compound, the tissue uptake at 2 h (pancreas) was 0.9 ± 0.2 %ID/g, the tissue uptake at 2 h (salivary glands) was 2.2 ± 0.4 %ID/g and the tissue uptake at 2 h (spleen) was 8.2 ± 0.7 %ID/g. For the same compound, the tissue uptake at 2 h (stomach) was 1.5 ± 0.1 %ID/g.

From article PMC13013135, “[^99mTc]Tc-PSMA-HSG for PSMA-targeted Hybrid Surgical Guidance: a new addition to the PSMA-I&S/I&T family” (European Journal of Nuclear Medicine and Molecular Imaging, 2025)
